# Test: UDP luminescence plate assay of E. coli extracts, saturation mutants of SEQ ID NO: 1, herbicide V
# Assay type: biochemical, Zea mays
# Settings: improvement factor relative to w/t bx9 = 1.0, rounded to nearest 0.5; extract activity basis; compound V
# Method: Competent BL21 (DE3) cells are transformed as in the foregoing examples and, following seed culturing, grown and autoinduced in plates in a 0.5-1 ml volume of autoinduction medium containing 50 ug/ml kanamycin. Plates are incubated at 37° C. and shaken at 900 rpm. Growth is monitored by taking 20 ul aliquots, diluting 10 fold into flat-bottomed 96 well microtiter plates and reading OD600n at t=0, 1, 2, 2½ and 3 hours if necessary. At a (corrected) OD600 nm˜0.2, plates are transferred to 20° C. and shaken overnight at 900 rpm in a Jencons VWR plate incubator. After ˜18-20 h the final OD600 readings are recorded and the plates centrifuged at 4600 rpm (bench top centrifuge) for 10 min at 4° C. The supernatant is discarded and the pellets then washed with 0.25 ml PBS by repeat centrifugation and removal of supernatant before freezing cell pellets at −80° C. To prepare extracts, plates are allowed to thaw for 30 min and then pellets are resuspended in 0.25 ml of a suitable lysis buffer (for example—50 mM Tris HCL buffer at pH 8.0, 5% glycerol containing 50 mM NaCl and lysonase) mixed, incubated at room temperature for a sufficient time for lysis to be near complete and then centrifuged to remove cell debris and 100 ul of supernatant extract removed to a 96 well V-shaped well plate and stored on ice prior to assay.
# Optionally plate assays are stopped with brief heating to 95 C before returning to ice and addition of UDP-Glo detection reagent followed by incubation at lab temperature. […] In addition a UDP standard curve is run alongside each set of plate tests.
# Making use of the ELISA assay it is then possible to calculate a specific activity (e.g. in Relative Luminescence Units (RLU)/min/ug bx protein) based upon the amount of each mutant bx9 polypeptide expressed in each well. […] The specific activity of the various test mutant extracts on the same plate are then expressed as a fraction of the specific activity of the w/t bx9 and thus the ‘improvement factor’ versus the w/t expressed as a decimal where, for example, ‘0.5’ means half the specific activity of the wild type and 2.0 means twice the specific activity of the wild type. However, as will be readily apparent to the skilled man, particularly in cases where the UDP assay signal was low (with poor signal to noise versus the background) and/or the ELISA measurement of bx protein also low such a method is prone to generate spurious high specific activity numbers and uncertain numbers.
row,Molecule,Preferred amino acid substitutions and (IF) based on RLU/min/ul
1,"I153L: bx9 SEQ ID NO:1 mutant (protein, Zea mays) MASSRTGAGAGGRVVVFPFPFQGHFNPVMRLARALHARGLAITVFHSGALDPADYPADYRFVPVTVEADPKLLASEDIAAIVTTLNASCDAPFRARLSALLAAEGRDSVRCVFTDVSWNAVLTASSDLGVPALGMMTASAASLRDYMAYRTLLDKGYLPVKEERKEDPVPELPPYLVKDLLRVDTSDLEEFAELLARTVTAARRASGLIFNTFPLIETDTLAEIHKALSVPVFAVAPLNKLVPTATASLHGVVQADRGCLQWLDTQQPGSVLYVSFGSMAAMDPHEFVELAWGLADSKRPFVWVVRPNLIRGFESGALPDGVEDEVRGRGIVVAWAPQEEVLAHPAVGGFLTHNGWNSTVEAISEGVPMVCCPRHGDQFGNMRYVCDVWKVGTELVGEQLERGQVKAAIDRLFGTKEGEEIKERMKEFKIAAAKGIGIGVDVDETASPRTDLTDLVDLIKSF","T,C,K,V,L,M,Y(1.0);"
2,"I153M: bx9 SEQ ID NO:1 mutant (protein, Zea mays) MASSRTGAGAGGRVVVFPFPFQGHFNPVMRLARALHARGLAITVFHSGALDPADYPADYRFVPVTVEADPKLLASEDIAAIVTTLNASCDAPFRARLSALLAAEGRDSVRCVFTDVSWNAVLTASSDLGVPALGMMTASAASLRDYMAYRTLMDKGYLPVKEERKEDPVPELPPYLVKDLLRVDTSDLEEFAELLARTVTAARRASGLIFNTFPLIETDTLAEIHKALSVPVFAVAPLNKLVPTATASLHGVVQADRGCLQWLDTQQPGSVLYVSFGSMAAMDPHEFVELAWGLADSKRPFVWVVRPNLIRGFESGALPDGVEDEVRGRGIVVAWAPQEEVLAHPAVGGFLTHNGWNSTVEAISEGVPMVCCPRHGDQFGNMRYVCDVWKVGTELVGEQLERGQVKAAIDRLFGTKEGEEIKERMKEFKIAAAKGIGIGVDVDETASPRTDLTDLVDLIKSF","T,C,K,V,L,M,Y(1.0);"
3,"L194E: bx9 SEQ ID NO:1 mutant (protein, Zea mays) MASSRTGAGAGGRVVVFPFPFQGHFNPVMRLARALHARGLAITVFHSGALDPADYPADYRFVPVTVEADPKLLASEDIAAIVTTLNASCDAPFRARLSALLAAEGRDSVRCVFTDVSWNAVLTASSDLGVPALGMMTASAASLRDYMAYRTLIDKGYLPVKEERKEDPVPELPPYLVKDLLRVDTSDLEEFAEELARTVTAARRASGLIFNTFPLIETDTLAEIHKALSVPVFAVAPLNKLVPTATASLHGVVQADRGCLQWLDTQQPGSVLYVSFGSMAAMDPHEFVELAWGLADSKRPFVWVVRPNLIRGFESGALPDGVEDEVRGRGIVVAWAPQEEVLAHPAVGGFLTHNGWNSTVEAISEGVPMVCCPRHGDQFGNMRYVCDVWKVGTELVGEQLERGQVKAAIDRLFGTKEGEEIKERMKEFKIAAAKGIGIGVDVDETASPRTDLTDLVDLIKSF",1.0
4,"L194D: bx9 SEQ ID NO:1 mutant (protein, Zea mays) MASSRTGAGAGGRVVVFPFPFQGHFNPVMRLARALHARGLAITVFHSGALDPADYPADYRFVPVTVEADPKLLASEDIAAIVTTLNASCDAPFRARLSALLAAEGRDSVRCVFTDVSWNAVLTASSDLGVPALGMMTASAASLRDYMAYRTLIDKGYLPVKEERKEDPVPELPPYLVKDLLRVDTSDLEEFAEDLARTVTAARRASGLIFNTFPLIETDTLAEIHKALSVPVFAVAPLNKLVPTATASLHGVVQADRGCLQWLDTQQPGSVLYVSFGSMAAMDPHEFVELAWGLADSKRPFVWVVRPNLIRGFESGALPDGVEDEVRGRGIVVAWAPQEEVLAHPAVGGFLTHNGWNSTVEAISEGVPMVCCPRHGDQFGNMRYVCDVWKVGTELVGEQLERGQVKAAIDRLFGTKEGEEIKERMKEFKIAAAKGIGIGVDVDETASPRTDLTDLVDLIKSF",1.0
5,"I153Q: bx9 SEQ ID NO:1 mutant (protein, Zea mays) MASSRTGAGAGGRVVVFPFPFQGHFNPVMRLARALHARGLAITVFHSGALDPADYPADYRFVPVTVEADPKLLASEDIAAIVTTLNASCDAPFRARLSALLAAEGRDSVRCVFTDVSWNAVLTASSDLGVPALGMMTASAASLRDYMAYRTLQDKGYLPVKEERKEDPVPELPPYLVKDLLRVDTSDLEEFAELLARTVTAARRASGLIFNTFPLIETDTLAEIHKALSVPVFAVAPLNKLVPTATASLHGVVQADRGCLQWLDTQQPGSVLYVSFGSMAAMDPHEFVELAWGLADSKRPFVWVVRPNLIRGFESGALPDGVEDEVRGRGIVVAWAPQEEVLAHPAVGGFLTHNGWNSTVEAISEGVPMVCCPRHGDQFGNMRYVCDVWKVGTELVGEQLERGQVKAAIDRLFGTKEGEEIKERMKEFKIAAAKGIGIGVDVDETASPRTDLTDLVDLIKSF","Q,R,F(1.5)"
6,"L194G: bx9 SEQ ID NO:1 mutant (protein, Zea mays) MASSRTGAGAGGRVVVFPFPFQGHFNPVMRLARALHARGLAITVFHSGALDPADYPADYRFVPVTVEADPKLLASEDIAAIVTTLNASCDAPFRARLSALLAAEGRDSVRCVFTDVSWNAVLTASSDLGVPALGMMTASAASLRDYMAYRTLIDKGYLPVKEERKEDPVPELPPYLVKDLLRVDTSDLEEFAEGLARTVTAARRASGLIFNTFPLIETDTLAEIHKALSVPVFAVAPLNKLVPTATASLHGVVQADRGCLQWLDTQQPGSVLYVSFGSMAAMDPHEFVELAWGLADSKRPFVWVVRPNLIRGFESGALPDGVEDEVRGRGIVVAWAPQEEVLAHPAVGGFLTHNGWNSTVEAISEGVPMVCCPRHGDQFGNMRYVCDVWKVGTELVGEQLERGQVKAAIDRLFGTKEGEEIKERMKEFKIAAAKGIGIGVDVDETASPRTDLTDLVDLIKSF",1.0
7,"I153R: bx9 SEQ ID NO:1 mutant (protein, Zea mays) MASSRTGAGAGGRVVVFPFPFQGHFNPVMRLARALHARGLAITVFHSGALDPADYPADYRFVPVTVEADPKLLASEDIAAIVTTLNASCDAPFRARLSALLAAEGRDSVRCVFTDVSWNAVLTASSDLGVPALGMMTASAASLRDYMAYRTLRDKGYLPVKEERKEDPVPELPPYLVKDLLRVDTSDLEEFAELLARTVTAARRASGLIFNTFPLIETDTLAEIHKALSVPVFAVAPLNKLVPTATASLHGVVQADRGCLQWLDTQQPGSVLYVSFGSMAAMDPHEFVELAWGLADSKRPFVWVVRPNLIRGFESGALPDGVEDEVRGRGIVVAWAPQEEVLAHPAVGGFLTHNGWNSTVEAISEGVPMVCCPRHGDQFGNMRYVCDVWKVGTELVGEQLERGQVKAAIDRLFGTKEGEEIKERMKEFKIAAAKGIGIGVDVDETASPRTDLTDLVDLIKSF","Q,R,F(1.5)"
8,"I153Y: bx9 SEQ ID NO:1 mutant (protein, Zea mays) MASSRTGAGAGGRVVVFPFPFQGHFNPVMRLARALHARGLAITVFHSGALDPADYPADYRFVPVTVEADPKLLASEDIAAIVTTLNASCDAPFRARLSALLAAEGRDSVRCVFTDVSWNAVLTASSDLGVPALGMMTASAASLRDYMAYRTLYDKGYLPVKEERKEDPVPELPPYLVKDLLRVDTSDLEEFAELLARTVTAARRASGLIFNTFPLIETDTLAEIHKALSVPVFAVAPLNKLVPTATASLHGVVQADRGCLQWLDTQQPGSVLYVSFGSMAAMDPHEFVELAWGLADSKRPFVWVVRPNLIRGFESGALPDGVEDEVRGRGIVVAWAPQEEVLAHPAVGGFLTHNGWNSTVEAISEGVPMVCCPRHGDQFGNMRYVCDVWKVGTELVGEQLERGQVKAAIDRLFGTKEGEEIKERMKEFKIAAAKGIGIGVDVDETASPRTDLTDLVDLIKSF","T,C,K,V,L,M,Y(1.0);"
9,"I153F: bx9 SEQ ID NO:1 mutant (protein, Zea mays) MASSRTGAGAGGRVVVFPFPFQGHFNPVMRLARALHARGLAITVFHSGALDPADYPADYRFVPVTVEADPKLLASEDIAAIVTTLNASCDAPFRARLSALLAAEGRDSVRCVFTDVSWNAVLTASSDLGVPALGMMTASAASLRDYMAYRTLFDKGYLPVKEERKEDPVPELPPYLVKDLLRVDTSDLEEFAELLARTVTAARRASGLIFNTFPLIETDTLAEIHKALSVPVFAVAPLNKLVPTATASLHGVVQADRGCLQWLDTQQPGSVLYVSFGSMAAMDPHEFVELAWGLADSKRPFVWVVRPNLIRGFESGALPDGVEDEVRGRGIVVAWAPQEEVLAHPAVGGFLTHNGWNSTVEAISEGVPMVCCPRHGDQFGNMRYVCDVWKVGTELVGEQLERGQVKAAIDRLFGTKEGEEIKERMKEFKIAAAKGIGIGVDVDETASPRTDLTDLVDLIKSF","Q,R,F(1.5)"
